In assay [1] the target is IL-2 receptor (CD25) on HUT-102 and MT-2 cells (human) (UniProt P01589). Kind of assay: cell-based or functional assay.
The target of assay [2] is T1, CD124 (IL4-receptor) on 4T1 triple-negative breast cancer cells (mouse) (UniProt P16382).
T1 sequence: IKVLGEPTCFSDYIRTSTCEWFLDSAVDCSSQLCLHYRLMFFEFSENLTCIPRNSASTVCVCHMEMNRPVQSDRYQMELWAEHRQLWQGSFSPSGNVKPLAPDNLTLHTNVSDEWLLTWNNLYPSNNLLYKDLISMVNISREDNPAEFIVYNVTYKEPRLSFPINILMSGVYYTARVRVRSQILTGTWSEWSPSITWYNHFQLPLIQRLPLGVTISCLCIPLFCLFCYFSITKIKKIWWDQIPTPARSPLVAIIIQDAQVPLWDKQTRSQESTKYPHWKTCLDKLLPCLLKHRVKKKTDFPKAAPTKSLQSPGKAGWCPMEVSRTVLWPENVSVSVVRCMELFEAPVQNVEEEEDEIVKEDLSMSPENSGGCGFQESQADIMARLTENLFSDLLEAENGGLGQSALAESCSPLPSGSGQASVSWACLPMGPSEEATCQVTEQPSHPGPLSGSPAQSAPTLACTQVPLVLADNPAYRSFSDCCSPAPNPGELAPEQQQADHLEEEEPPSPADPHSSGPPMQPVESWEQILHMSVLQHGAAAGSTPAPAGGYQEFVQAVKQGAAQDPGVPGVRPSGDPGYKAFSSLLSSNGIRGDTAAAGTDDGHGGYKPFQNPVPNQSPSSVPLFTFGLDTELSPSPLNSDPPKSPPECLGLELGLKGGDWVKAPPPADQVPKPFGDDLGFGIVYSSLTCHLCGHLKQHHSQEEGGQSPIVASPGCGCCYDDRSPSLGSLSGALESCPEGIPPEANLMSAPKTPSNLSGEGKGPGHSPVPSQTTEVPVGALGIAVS
The assay is described as follows: cell-based or functional assay.

Sequence of UniProt P01589 (P01589 22-272): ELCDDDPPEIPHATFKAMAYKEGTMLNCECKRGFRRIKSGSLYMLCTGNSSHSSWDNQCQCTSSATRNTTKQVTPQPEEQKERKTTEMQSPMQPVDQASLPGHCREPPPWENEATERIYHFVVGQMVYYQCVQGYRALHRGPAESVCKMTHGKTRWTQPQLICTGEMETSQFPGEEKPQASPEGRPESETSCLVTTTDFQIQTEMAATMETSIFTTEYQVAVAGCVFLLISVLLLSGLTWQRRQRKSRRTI

“C. diphtheriae-derived s-Ontak-His6 (SEQ ID NO: 58)”: in assay [1], the MT-2 cell IC50 (earlier disclosed data) was determined as 0.12 pM.

In the case of “E. coli-derived classic Ontak (denileukin diftitox, SEQ ID NO: 10)”, the IC50 against HUT-102 T cell lymphoma cells (in vitro cell killing) in assay [1] is 1.8 pM.

In assay [2], s-DAB1-389-mIL4-His6 (SEQ ID NO: 134) yielded an IC50 for killing 4T1 cells (Trypan blue viability) of 10 pM and an IC50 of 4T1 cell migration inhibition (clonogenic assay, Giemsa staining) of 800 pM.
